From US20200262917A1 (Daiichi Sankyo, published 2020) come the findings set out here.

Assay [1] has as its target T1, FLAG-D3D4: domain 3 and onwards (263-525) of human LAG-3 with N-terminal FLAG tag, on cells (human, UniProt P18627 263-525).
T1 construct: Expressed on HEK293T cells from pcDNA3.1; any leader before the FLAG tag is not described; also called construct containing domains 3 and 4
T1 sequence: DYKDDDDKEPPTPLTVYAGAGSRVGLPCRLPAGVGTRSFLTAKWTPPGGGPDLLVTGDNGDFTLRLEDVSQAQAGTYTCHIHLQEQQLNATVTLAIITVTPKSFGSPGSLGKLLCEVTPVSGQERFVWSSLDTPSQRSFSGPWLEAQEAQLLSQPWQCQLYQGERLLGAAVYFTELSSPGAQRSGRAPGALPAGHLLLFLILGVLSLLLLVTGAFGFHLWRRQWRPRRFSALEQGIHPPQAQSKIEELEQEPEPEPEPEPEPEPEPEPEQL
Description: same type of flow cytometry experiment using hybridoma culture supernatant. (In general: Flow cytometry measures light scatter and fluorescence of single cells or particles in a stream.)

The target in assay [2] is T2, human LAG-3 (full length, expressed on cells) (human, UniProt P18627 23-525).
T2 construct: also called CD223; hLAG-3
T2 sequence: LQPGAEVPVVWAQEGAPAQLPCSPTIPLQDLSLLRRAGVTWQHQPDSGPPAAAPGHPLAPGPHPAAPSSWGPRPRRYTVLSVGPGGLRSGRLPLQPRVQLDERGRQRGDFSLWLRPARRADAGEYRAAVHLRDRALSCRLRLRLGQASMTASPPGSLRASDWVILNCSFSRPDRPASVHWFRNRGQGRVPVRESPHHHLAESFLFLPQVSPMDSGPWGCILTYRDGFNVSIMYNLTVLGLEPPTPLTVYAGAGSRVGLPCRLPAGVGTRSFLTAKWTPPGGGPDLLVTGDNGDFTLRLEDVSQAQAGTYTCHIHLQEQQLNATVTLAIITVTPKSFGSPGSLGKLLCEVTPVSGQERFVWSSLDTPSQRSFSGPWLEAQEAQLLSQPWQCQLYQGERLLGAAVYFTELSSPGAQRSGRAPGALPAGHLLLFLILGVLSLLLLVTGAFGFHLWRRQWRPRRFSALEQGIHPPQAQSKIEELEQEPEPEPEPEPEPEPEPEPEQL
The assay can be described thus: flow cytometry on PHA-activated human T cells (PHA blasts) expressing LAG-3.

Assay [3] concerns the target T3, FLAG-D4: domain 4 and onwards (353-525) of human LAG-3 with N-terminal FLAG tag, on cells (human, UniProt P18627 353-525).
T3 construct: Expressed on HEK293T cells from pcDNA3.1; any leader before the FLAG tag is not described; also called construct containing only domain 4
T3 sequence: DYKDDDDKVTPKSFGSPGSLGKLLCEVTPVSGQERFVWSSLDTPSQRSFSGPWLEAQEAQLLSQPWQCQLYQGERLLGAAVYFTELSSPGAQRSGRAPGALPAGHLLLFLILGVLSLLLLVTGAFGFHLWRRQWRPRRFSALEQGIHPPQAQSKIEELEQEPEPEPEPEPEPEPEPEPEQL
Description: flow cytometry on transfected HEK293T cells. As for the experimental part:
(§1) It was further confirmed by flow cytometry that the antibody produced by the hybridomas determined to be positive by the Cell-ELISA in Example 1)-3 binds to PHA (phytohemagglutinin) activated human T cells (PHA blasts), a more physiologically relevant cell type expressing LAG-3. To human PBMCs stimulated with 2 μg/mL of PHA (manufactured by Sigma-Aldrich) for three days, was added a hybridoma culture supernatant for suspension, followed by reaction at 4° C. for 30 minutes. After washing with a FACS buffer (PBS, 0.1% BSA, and 0.1% sodium azide), a secondary antibody such as an Anti-Rat IgG PE conjugate (manufactured by Jackson ImmunoResearch Laboratories, Inc.) diluted 200-fold with a FACS buffer comprising a LIVE/DEAD Fixable Dead Cell Stain Kit-near-IR fluorescent reactive dye (manufactured by Invitrogen Corp.) was added thereto for suspension, followed by standing at 4° C. for 30 minutes. After washing with a FACS buffer, the cells were resuspended in PBS containing 1 to 2% paraformaldehyde, followed by detection using a flow cytometer (Cantoll: manufactured by Becton, Dickinson and Company or FC500: manufactured by Beckman Coulter Inc.). The data was analyzed using FlowJo (manufactured by Tree Star Inc). After removal of the LIVE/DEAD Fixable Dead Cell Stain Kit-near-IR fluorescent reactive dye-positive dead cells by gating, a histogram of the fluorescence intensity of the living cells was plotted.
(§2) Each expression plasmid (cloned into pcDNA3.1) of either domain 3 and onwards (263-525) or domain 4 and onwards (353-525) of human LAG-3 with a FLAG tag sequence ([…]) added to the N terminus was introduced into HEK293T cells using Lipofectamine 2000 (manufactured by Life Technologies Corp.), and the cells were cultured for 1 day and then recovered, to investigate the binding activity of the antibodies by flow cytometry according to the method described in Example 1)-4. […]

Assay [4] deals with T1, FLAG-D3D4: domain 3 and onwards …. The assay can be described thus: flow cytometry on transfected HEK293T cells, antibody at 10 µg/mL. As for the experimental part:
as §1, §2

Assay [5] has as its target T2, human LAG-3 (full length, expressed on …). Description: flow cytometry on human LAG-3-expressing 293T-lacZ cells. As for the experimental part: The flow cytometry was performed according to the method described in Example 1)-4, but an Anti-Human IgG PE conjugate (manufactured by Jackson ImmunoResearch Laboratories, Inc.) diluted 200-fold with a FACS buffer was used as the secondary antibody.

B1: rat anti-human LAG-3 monoclonal antibody rLA869 (antibody, V domains shown)
VH: EVQLVESGGGLVQPGRSLKLSCAASGFTYRTYVMAWVRQGPTQGLEWVASISTGGVSTYYRDSVKGRFTISRDNAKNTLYLQMDSLRSEDTATYYCAKDMLNGYNSQGLFDYWGQGVMVTVSS
VL: NIVMTQSPKSMSISVGDRVTMNCRASQNVDNTIAWYQQKPGQSPKLLIYFASDRYTGVPDRFTGGGYGTDFTLTINSVQAEDAAFYYCQRIYNSPLTFGSGTKLEIRR
notes: Rat monoclonal antibody
With B1, the binding result in assay [1] and in assay [2] was “binds” in each case.

B2: rat anti-human LAG-3 monoclonal antibody rLA225 (antibody, V domains shown)
VH: EVQLVESGGGLVQPGRSMKLSCVASGFTFSNYYMAWVRQAPTKGLEWVASISTGGGNTYYRDSVKGRFTISRDNAKSTLYLQMDSLRSEDTATYYCARPPYGYNYGWFTYWGQGTLVTVSS
VL: DIQMTQSPASLSASLGETVTIECRASEDIHNGLVWYQQKPGKSPQLLIYNANSMHTGVPSRFSGSGSGTQYSLKINSLQSEDVASYFCQQYYNYPRTFGGGTKLELKR
notes: Rat monoclonal antibody purified from hybridoma supernatant; the rat constant regions are not
Consider B2, for which the binding result in assay [3] is listed as “no binding (tested: 10 µg/mL)”; in assay [4] it was “binds”; in assay [2], “binds”.

B3: rat anti-human LAG-3 monoclonal antibody rLA204 (antibody, V domains shown)
VH: EVELVESGGGLVQPGRSMKLSCAASGFTFRTYGMAWVRQAPTKGLEWVASISTGGGSTYYRDSVKGRFTISRDNAKSTLYLQMDSLRSEDTATYYCTTDLINYPGIGGFAFWGQGTLVTVSS
VL: NIVMTQSPKSMSISVGDRVTMNCKASQNVYNNIAWYQQKPGKSPKLLIYYASNRYTGVPDRFTGSGSGTDFTLTIHSVQAEDAAFYYCQRLYNSPPTFGGGTKLELKR
notes: the rat constant regions are not
As for B3, the figures for the binding result in assay [3], in assay [4] and in assay [2] were “no binding (tested: 10 µg/mL)”, “binds” and “binds”, respectively.

B4: rat anti-human LAG-3 monoclonal antibody rLA1264 (antibody, V domains shown)
VH: EVQLVESGGGLVQPGRSLKLSCAASGFTFSSYYMAWVRQAPTKGLEWVAYISNGGYSTYYRDSVKGRFTISRENAKSTLYLQMDSLRSEDTATYYCTITDHSGYRFTYWGQGTLVTVSS
VL: DIQMTQSPSLLSASVGDRVTLSCKASQSIYNSLAWYQQKLGEAPKLLIYDANSLQTGIPSRFSGSGSGTDFTLTISSLQPEDVATYFCQKYYSGNTFGAGTKLELKR
notes: Rat monoclonal antibody
B4: the binding result in assay [1] and in assay [2] was “binds” each time.

B5: rat anti-human LAG-3 monoclonal antibody rLA212 (antibody, V domains shown)
VH: EVQLVESGGGLVQPGRSLKLSCAASGFTYRSYVMAWVRQAPTRGLEWVASISTGGGNTYYRDSVKGRFTISRDNAKNTLYLQMDSLRSEDTATYYCAEDMSNSGYGLFDYWGQGVMVTVSS
VL: NIVMTQSPKSMSISVGDRVTMNCKAGQNVDNNIAWYQKKPGQSPKLLIYYASNRNTGVPDRFTGGGYGTDFTLTINSVQAEDAAFYYCQRISNSPYTFGAGTELELKR
notes: as for B2
Consider B5, for which the results for the binding result in assay [3], in assay [4] and in assay [2] were “no binding (tested: 10 µg/mL)”, “binds” and “binds”, respectively.

B6: humanized anti-human LAG-3 antibody hLA212_H4/L2 (antibody, human IgG1, kappa, V domains shown)
VH: EVQLVESGGGLVQPGGSLRLSCAASGFTYRSYVMAWVRQAPGKGLEWVASISTGGGNTYYRDSVKGRFTISRDNAKNTLYLQMDSLRAEDTAVYYCAEDMSNSGYGLFDYWGQGTLVTVSS
VL: DIQMTQSPSSLSASVGDRVTITCKAGQNVDNNIAWYQQKPGQSPKLLIYYASNRNTGVPSRFSGSGYGTDFTLTISSLQPEDFATYYCQRISNSPYTFGQGTKVEIKR
modifications: defucosylated (sugar chain modification adjusted); peaks of fucose-containing H chain at or below the detection limit in mass spectrometry
notes: defucosylated form (human IgG1/kappa); also called hLA212 antibody H4/L2; low fucose form of hLA212_H3/L2
Turning to B6, in assay [5], the binding result is on record as “binds”.
